In the nanobody polyreactivity screen of Harvey et al. (2022):

Test: yeast display, Sf9 membrane polyspecificity reagent, FACS + sequencing; frameworks hold sequencing errors
In short: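 Genes from sorted yeast were amplified by colony PCR, read by MiSeq 2 × 250 sequencing and filtered on CDR length. These cells carried a synthetic nanobody library in Saccharomyces cerevisiae BJ5465 and were sorted by FACS into low and high (top ~1%) gates on anti-HA and streptavidin fluorescence. Polyreactivity is labelled according to the gate of origin.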

Row | Sequence | polyreactivity (PSR sort gate)
1 | QVQLVESGGGLVQAGGSLRLICAASGRTFKYKAMGWSRQAPGKERELVAVISRGGSTYADSVKGRFTISRDNAKNTVYLQMNSLKAEDTAVYYCAVGRNSRQASERYGWYKYDYWGQGTQVTVSS | high polyreactivity
2 | QVQLVESGGGLVQAGGSLRLICAASGRTFPYNAMGWSRQAPGKERELVARITSGGRTYYADSVKGRFTISRDNAKNTVYLQMNSLKPEDPAVYYCAAETLRYYWKSYDWGQGTQVTVSA | high polyreactivity
3 | QVQLVESGGGLVQAGGSLRLICAASGRTFRGDAMGWYRPAPGKERELVAAITKSGGSTYYADSVKGRFTISRDNAKNTVYLQMNSLKPEDTAVYYCAKLRSSRDYDYWGQVTQVTVSS | high polyreactivity
4 | QVQLVESGGGLVQAGGSLRLICAASGRTFRHNAMGWYRQAPGKERELVAAISSSGTNTHYADSVKGRFTISRDNAQNTVYLQMNSLKPEDTAVYYCAADRWGARRKQYHENGYWGQGTQVTVSS | high polyreactivity
5 | QVQLVESGGGLVQAGGSLRLICAASGRTFRKYAMGWYRQAPGKERELVAAINRGGTTKYADSVKGRFTISRDNAKNTVYLQMNSLKPEDTAVYYCNAAYGGVFFYAYDYWGQGTQVTVSS | low polyreactivity
6 | QVQLVESGGGLVQAGGSLRLICAASGRTFSTYAMGWYRQAPGKERELVAAISSGGGRTYYADSVKGRFTISRDNAKNTVYLQMNSLKPEDTAVYYCAADRYVRSRRSYEYWGQGTQVTVSS | low polyreactivity
7 | QVQLVESGGGLVQAGGSLRLICAASGRTFSYYAIAWYRPAPGKERELVAAINWSGTRTYYADSVTGRCTISRDNAKNTVYLQMNSLNPEDTAVYYCARRWVGYDYWGQGTQVTVSS | high polyreactivity
8 | QVQLVESGGGLVQAGGSLRLICAASGRTFTLNVMGWYRQAPGKETEFVATITWGGGRTYYADSVKGRFTISRDNAKNTVYLQMNSLKPVDTAVYYCAGQLAKTIRGRGYNSWGQGTQVTVSS | low polyreactivity
9 | QVQLVESGGGLVQAGGSLRLICAASGRTFVYYAMGWYRQAPGKERELVAAITRSGGRTYYEDSVKGSFTISRDNAKNNVYLQMNSLKPEDTAVYYCAARYWDNPFWFDYWGQGTIVTVSS | high polyreactivity
10 | QVQLVESGGGLVQAGGSLRLICAASGRTLAPNAMGWYRQAPGKERELVATITRGGTTNYADSVKGRFTISRDNAKNTVYLQMNSLKPEDTAVYYCAKAHYLGYYQRYDYWGQGTQVTVSS | low polyreactivity
11 | QVQLVESGGGLVQAGGSLRLICAASGRTLDYYAMGWYRQAPGKERELVGAISQSDDSTYYADSVKGRFTISRDNSKNTVYLQMNILKPEDTAVNYCAAEIELFSPDGVGIYWYVYWGQGTQVYVSS | high polyreactivity
12 | QVQLVESGGGLVQAGGSLRLICAASGRTLGGNDMGWYRQAPGKERELVAAITNSASTYADSVKGRFTISRDNAKNTVYLQMNSLKPEDTAVYYCNAPDPSDQHGDYWGQGTQVTVSS | low polyreactivity
13 | QVQLVESGGGLVQAGGSLRLICAASGSIFAYNAMGWYRQAPGKERELVAAITDSGGSTFYADSVKGRFTISRDNAKNTVYLQMNSLKPEDTAVYYCATSGDRLVWGQGTQVTVSS | low polyreactivity
14 | QVQLVESGGGLVQAGGSLRLICAASGSIFDFYAMGWYRQAPGKERELVAAISRNGGSTYYADSVKGRFTISRDNAKNTFYLQMNSLKPEDTAVYYCNKTVYVGAKEYDYWGQGTQVTVSS | high polyreactivity
15 | QVQLVESGGGLVQAGGSLRLICAASGSIFFVYDMGWYRQAPGKERELVAAITWSGGRTTYADSVKGRFTISRDNAKNTVYLQMNSMKPEDTAVYYCAKAWPDHWYSRYDYWGQGTQVTVSS | low polyreactivity
16 | QVQLVESGGGLVQAGGSLRLICAASGSIFGLYVMGWYRQAPGKERELVATITSGGSTYYADSVKGRFTISRDNAKNTVYLQMNSLKPEDTAVYYCNTRWTPSREYDYWGQGTQVTVSS | low polyreactivity
17 | QVQLVESGGGLVQAGGSLRLICAASGSIFHVNSMGWYRQAPGKERELVAGISDGGSTYYADSVKGRFTISRDNAKNTVYLQMNSLKPEDTAVSYCAAESEQWYSYVLSYDWEYDYWGQGTHVTVSS | low polyreactivity
18 | QVQLVESGGGLVQAGGSLRLICAASGSIFLYYAMGWYRQAPGKEMELVAAITSTGSTYYADSVKGRFTISRDNAKNTVYLQMNSLKPEDTAVYYCAAELRRLFYAYGYWGQGTQVTVSS | low polyreactivity
19 | QVQLVESGGGLVQAGGSLRLICAASGSIFNQNSMGWYRQAPGKERELVAVISSGGRTSYADSVKGRFTISRDNAKNTVFLLMNSLKPEDTAVYYCNREGWHYGPYGYWGQGTQVTVSS | low polyreactivity
20 | QVQLVESGGGLVQAGGSLRLICAASGSIFNYYAMGWYRQAPGKERELVAGITTSGGSTYYADSVKGRFTISRDNAKNTVHLQMNSLKPEDTAVYYCAAYDYISSTYFLDDYWGQGTQVTVSS | low polyreactivity
21 | QVQLVESGGGLVQAGGSLRLICAASGSIFRKNAMGWYRQAPGKERELVAAITGTGRTTYADSVMGRFTISRDNAKNTVYLQRNSLKPEDTAVYYCAADVNYYQHRLYYWGQGTQVTVSS | low polyreactivity
22 | QVQLVESGGGLVQAGGSLRLICAASGSIFSFYAMGWYRQAPGKERELVAAITSDGSTDYADSVKGRFTISRDNAKNTVYLQMNCLKPEDTAVYYCAADYIVRVVSRYRYGYEYWGQGTQVTVSS | low polyreactivity

Row | Sequence | polyreactivity (PSR sort gate)
23 | QVQLVESGGGLVQAGGSLRLICAASGSIFTLYDMGWYRQAPGKERELVAAITSGGSTDYADSVKGRFTISRDNAKNTVYLQMNSLKPEDTAVYYCNAEAYPYWYRGASREYDYWGQGTQVTVSS | low polyreactivity
24 | QVQLVESGGGLVQAGGSLRLICAASGSIFTYYVMGWYRQAPGKDRDLVAGISRAGSTNYADSVKGRFTISRDNAKNTVYLQMNSLKPEDTAVYYCAKSVWFVKHRKPHDYWGQGTQVTVSS | low polyreactivity
25 | QVQLVESGGGLVQAGGSLRLICAASGSIFYRYAMGWYRQAPGKERELVAAISSNGVSTYYADSVKGRFTISRDNAKNTVYLQMNSLKPEDTAVYYCARDVYASPRLYTSRYNYWGQGTQVTVSS | low polyreactivity
26 | QVQLVESGGGLVQAGGSLRLICAASGSIIHKNAMGWYRQAPGKERELVARITSSSGSTYYADSVKGRFTISRDNAKNTVYLQMNSLKPEDTAVYYFNAVYYHDVDFDYWGQGTQVTVSS | high polyreactivity
27 | QVQLVESGGGLVQAGGSLRLICAASGSILYKYAMGWYRQAPGKERELVAAISSRGGNTYYADSVKGRFTISRDNAKNTVYLHMNSLKPEDTAVYYCAADMWAGKYGEYDYWGQGTQVTVSS | high polyreactivity
28 | QVQLVESGGGLVQAGGSLRLICAASGSIQDWNAMGWYRQAPGKERELVAAITNGVSTHYADSVKGRFTISRDNAKNTVYLQMNSLKPEDTAVYYCAKAFWWRPEWWLRSARGSWGLGTQVTVSS | low polyreactivity
29 | QVQLVESGGGLVQAGGSLRLICAASGSNFNPYAMGWYRQAPGKERELVAAINSGDSTNYADSVKGRFSISRDNAKNTLYLQMNSLKPEDTAVFYCANRYRRRYNYWGQGTQETVSS | high polyreactivity
30 | QVQLVESGGGLVQAGGSLRLICAASGSTFATYSMGWYRQAPGKERELVAAITLRGGRTYYADSVKGRFTISRDNAKNTVYLQMNSLKPEDTAVYYCAAEYYYLSFGLTWWRGFDYWGQGTHVTVSS | high polyreactivity
31 | QVQLVESGGGLVQAGGSLRLICAASGSTFAYNDMGWYRQAPGKERELVADIRSGGNTNYADSVKGRFTISRDNAKNTVYLQMNSLKPEDTAVYYCATDCYRIDVYHPDYRYDYWGQGTQVTVSS | low polyreactivity
32 | QVQLVESGGGLVQAGGSLRLICAASGSTFGPYSMGWYRQAPGKERELVAAIDQISSSTHYADSVKGRFTISRDNAKNTVYLQMNSLKPEDTAVYYCNADEFRYGYFPHYDYWGQGTQVTVSS | low polyreactivity
33 | QVQLVESGGGLVQAGGSLRLICAASGSTFGRNAMGWSRQAPGKERELVAAISSGGRTYYADSVKGRFTSSRDNAKHTVYVQLNSLKPEDSAVYYCARDDYGTLVKLYVRGFNYWGQGTQVTVSS | low polyreactivity
34 | QVQLVESGGGLVQAGGSLRLICAASGSTFKGYAMGWYIQSPGKERELVAAISWPGGRTSYADSVKGRFTISRDNAKNTVYLQMNSLKPEDTAVYYCNKAWWVQKGYFFYYWEQGTQVTVSS | high polyreactivity
35 | QVQLVESGGGLVQAGGSLRLICAASGSTFLVYSMGWYRQEPGKERELVAAISYSGGSTYYADSVKGRFTISRDNSKNTVYLQLNSLKPEDTAVYYCNVEPVDRWYYKYDYWGQGTEVTVSS | low polyreactivity
36 | QVQLVESGGGLVQAGGSLRLICAASGSTFPSYAMGWYRQAPGKERELVAAITWSGDSTYYADSVKGRFTILRDNAKNTVYLQMNSLKPEDTAVYYCAKDGGYPVGVLGGDDMEYWGQGTQVTVSS | low polyreactivity
37 | QVQLVESGGGLVQAGGSLRLICAASGSTFQDYGMGWYRQAPGKERELVAAITTGDITNYADSVKGRFTISRDNAKKTVYLQMNSLKAEDTAVYYCNAEPKFYPDAGDDYWGQGTQVTVSS | low polyreactivity
38 | QVQLVESGGGLVQAGGSLRLICAASGSTFRWNALRWYRQAPGKERELVAAITWSGGSTYYADSVKVRFTISRDNAKNTVYVQMNSLKPEDTAVYYCNACGLFQYDSWGQGTKVTVSS | low polyreactivity
39 | QVQLVESGGGLVQAGGSLRLICAASGSTFRYYAMGWYRQAPGKEREFVAAISLRAGSTYYADSVKGRFTISRDNAKNTVYLQMNSLKPEDTAVYYCAARRASYGTRRYDYWGQGTQVTVSS | high polyreactivity
40 | QVQLVESGGGLVQAGGSLRLICAASGSTFSENTMGSYRPAPGKERELVAAISFSGASTYYADSVKGRFTISRDYAKKTVYLQLNSLKPEDTAVYYCRRFTSSPKLALGEYDYWGQGTQVTVSS | low polyreactivity
41 | QVQLVESGGGLVQAGGSLRLICAASGSTFTGYAMGWYRQAPGKERELVAAINWRGGTTYYADSVKGRFTISRDNAKNTVYLQMNSLKPEDTAVYYCNKYRISGLSKFYYWGQGTQVTVSS | high polyreactivity
42 | QVQLVESGGGLVQAGGSLRLICAASGSTFTTYAMGWYRQAPGKEREFVAGISWSGGSTRYADSVKGRFTISRDNAKNTVYLQMNSLKPEDTAVYYCAAGRKRDSKYYYWGQGTQVTVSS | high polyreactivity
43 | QVQLVESGGGLVQAGGSLRLICAASGSTFYTYAMGWYRQAPGKERELVAAITYSGGTTYYADSVKGRFTISRDSAKNTVYLQMNSLKPEDTAFYYCNTRSYYYSDDYWGQGTQVTVSS | low polyreactivity
